B1: CPEB3 Ribozyme (parent)
chain: GGGGGCCACAGCAGAAGCGUUCACGUCGCGGCCCCUGUCAGAUUCUGGUGAAUCUGCGAAUUCUGCUGU

Variants of: B1
Assay: self-cleavage, relative activity (ratio to wild type); higher = more cleavage; co-transcriptional

Variant	self-cleavage
C39G G58C	0.929
U38C C66U	0.947
U38C U67G	0.925
G37C U62C	0.276
U38G U62G	0.183
U38G U62A	0.291
U38A G41U	0.795
U38A G41A	0.718
C39U U55C	0.752
C39U U55A	0.752
U38G C57G	0.121
U38A U44C	0.802
U38G G50C	0.161
U38G G50A	0.204
C39U G48C	0.939
C39U A40U	0.624
U38A U62G	0.742
G37U A60C	0.224
G37U A60G	0.208
G37U A60U	0.195
U38C A52U	0.895
U38C A52G	0.909
G37A C45A	0.23
G37U A40U	0.257

Variant	self-cleavage
U38G C54U	0.29
U38G C54G	0.302
C39G G50A	0.962
C39G G50U	0.957
C39U U49C	0.927
G37U G58A	0.17
G37C U44G	0.211
G37C U44A	0.27
U38C G41U	0.705
U38A G68A	0.922
U38C U64A	0.772
G37U G48C	0.326
C39G U61C	0.394
C39A U49C	0.811
C39A U49G	0.928
A40C G68C	0.749
A40C G68U	0.806
U38G G41U	0.238
U38G G41A	0.245
G37C G41C	0.126
G37C G41A	0.245
C39U A51G	0.892
C39U A51C	0.737
G37A A59U	0.215

Variant	self-cleavage
C39A U46A	0.925
G37U U43G	0.298
G37C A51G	0.205
U38C U43G	0.866
G37U G41U	0.201
U38C C63A	0.71
U38C C63G	0.693
U38A U53A	0.864
U38A U53G	0.706
U38A C54G	0.8
U38A C54A	0.797
G37A A60C	0.274
G37A A60U	0.193
G37U G68U	0.375
U38G C39G	1.01
U38G C39U	0.322
U36G U67G	0.252
A40C C54G	0.323
C39U G50A	0.91
A40C G47C	0.794
G37A U44A	0.277
G37U G65C	0.228
G37A U64C	0.312
U38A C57G	0.297

Variant	self-cleavage
U38A A51C	0.908
U38A A51G	0.89
A40C U64C	0.357
A40C U64G	0.403
C39U U46A	0.934
G37A G58U	0.247
G37A G58A	0.289
C39G U64A	0.636
G37U U44C	0.188
C39G U67A	0.927
C39G U67G	0.965
G37U A59C	0.218
G37U A59G	0.412
G37C A52U	0.254
C39A U55A	0.825
C39A U43G	0.295
G37U A51U	0.252
G37U A51C	0.234
G37U A51G	0.266
G37U C54U	0.332
U38A U46C	0.954
U38A U46A	0.941
U38G C63G	0.224
U38G C63U	0.229

Variant	self-cleavage
G37A U61G	0.221
G37A U61C	0.149
C39A G48U	0.903
C39A G48C	0.912
C39G A59G	0.947
C39U C45G	0.74
C39U C45A	0.759
U36G U61C	0.139
U36G U61G	0.179
C39U C66G	0.579
G37U U64G	0.227
U38A U64A	0.799
U38A U64G	0.858
U38A G65A	0.733
G37C G56C	0.223
G37A G41U	0.219
A40C A52C	0.347
A40C A52U	0.365
U36G U64A	0.254
U38G U53A	0.287
U38G U53C	0.24
U38G U53G	0.255
C39U U69A	0.94
C39U U69G	1.05

Variant	self-cleavage
U38C U44G	0.851
G37C U53C	0.284
G37C U53G	0.129
C39U G56U	0.922
A40C A60G	0.225
A40C A60C	0.34
C39U A59U	0.527
C39U A59C	0.445
G37U C66U	0.245
U38G U61G	0.436
U38G U61A	0.267
U38G U61C	0.289
U38A U43A	0.784
C39G G41A	0.486
U38C U61A	0.759
U38C U61G	0.759
G37A A42G	0.189
G37U U61A	0.263
G37A U62G	0.318
C39A C57A	0.337
G37U C39G	0.214
G37U C39A	0.273
G37C U49A	0.307
G37A C66A	0.227

Variant	self-cleavage
G37A C66G	0.265
G37C U38G	0.25
U38G A40U	0.179
U38G A40C	0.17
U38G A40G	0.257
C39G G65U	0.442
C39G G65C	0.297
C39U U43G	0.405
C39U U43A	0.49
G37U G47A	0.324
U38A G50A	0.952
C39U U44C	0.514
C39U U44G	0.693
U38C C57U	0.409
U38C C57A	0.3
U38A C45A	0.875
U38A C45U	0.918
C39A G68A	0.925
C39G U55G	0.863
C39G U55C	0.693
C39G U69A	0.967
C39G U69G	1
G37C C45G	0.346

— the RNAGym collection of RNA variant scans (doi:10.7554/elife.80360)
